Legend:
[1] = target: T1, human RANK-L (human, UniProt O14788 140-317, limits assumed); experiment: AlphaScreen, biotin-hRANK-L / RANK-huFc beads
T1 construct: Soluble protein, used coated, biotinylated or labelled in ELISA, AlphaScreen, FMAT and Biacore; also called hRANK-L; soluble human RANK-L
T1 sequence (looked up): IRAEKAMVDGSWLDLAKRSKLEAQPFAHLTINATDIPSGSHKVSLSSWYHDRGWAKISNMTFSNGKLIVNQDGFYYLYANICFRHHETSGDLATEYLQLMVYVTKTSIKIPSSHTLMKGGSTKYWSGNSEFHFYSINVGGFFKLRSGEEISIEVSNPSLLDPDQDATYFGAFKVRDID

[2] = target: T1, human RANK-L; experiment: FMAT, ALEXA647-hRANK-L / RANK on HEK293T cells
[3] = target: T2, mouse RANK-L (mouse, UniProt O35235 158-316, limits assumed); experiment: ELISA, set-up as for human RANK-L
T2 construct: also called murine RANK-L
T2 sequence (looked up): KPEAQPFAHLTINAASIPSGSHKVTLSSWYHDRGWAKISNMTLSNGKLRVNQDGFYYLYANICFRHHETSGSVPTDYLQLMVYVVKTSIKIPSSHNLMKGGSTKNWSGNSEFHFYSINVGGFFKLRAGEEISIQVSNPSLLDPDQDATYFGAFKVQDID
Protocol: (§1) Therefore 2 μg/ml neutravidin was coated overnight at 4° C. The plates were washed 5 times with 300 μl PBS and then blocked with […] 1% casein/PBS for 2 hours at room temperature. […] After extensive washing with PBS, varying concentrations of Nanobodies starting from 500 nM to 160 pM diluted in 1% casein/PBS were added to the wells and the plates were incubated for 1 hour at room temperature. Bound Nanobodies were detected by subsequent incubations of a primary mouse anti-myc antibody and a secondary anti mouse-HRP conjugate (DAKO, Glostrup, Denmark) and using TMB-H2O2 (Pierce, Rockford, Ill., USA) substrate cocktail. The reaction was stopped with H₂SO₄ and the OD was read at 450 nm.

[4] = target: T1, human RANK-L; experiment: ELISA (ED50), biotin-hRANK-L on neutravidin
Protocol: as §1

[5] = target: T1, human RANK-L; experiment: AlphaScreen, biotin-hRANK-L / RANK-huFc beads; remark: listed apart in the source
Protocol: To this mixture, the RANK acceptor beads and the streptavidin donor beads were added and further incubated for 1 hour at room temperature. Fluorescence was measured by reading plates on the EnVision Multilabel Plate Reader (Perkin Elmer) using an excitation wavelength of 680 nm and an emission wavelength of 520 nm.

[6] = target: T1, human RANK-L; experiment: AlphaScreen, biotin-hRANK-L / RANK-huFc beads; remark: listed apart in the source
[7] = target: T3, human RANK-L, full length, membrane-bound, expressed on HEK293T cells (human, UniProt O14788 1-317); experiment: FACS, HEK293T with human RANK-L, 16 pM Nanobody
T3 construct: whole, on cells; also called hRANK-L
T3 sequence (looked up): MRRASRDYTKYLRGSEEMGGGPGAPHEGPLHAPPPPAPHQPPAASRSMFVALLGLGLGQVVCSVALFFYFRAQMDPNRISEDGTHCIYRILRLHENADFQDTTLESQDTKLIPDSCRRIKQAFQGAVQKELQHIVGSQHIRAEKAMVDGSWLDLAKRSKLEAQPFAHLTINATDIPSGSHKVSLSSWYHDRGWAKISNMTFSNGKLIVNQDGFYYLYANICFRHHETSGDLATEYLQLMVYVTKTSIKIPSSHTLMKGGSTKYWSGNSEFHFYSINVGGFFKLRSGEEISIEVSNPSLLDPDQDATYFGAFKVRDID
Protocol: (§2) Human embryonic kidney cells (HEK293T) were grown in Dulbecco's modified Eagles's medium supplemented with 10% fetal bovine serum (FBS), […] L-glutamine, 0.4 mM sodium pyruvate. […] After 48 hours, transfected cells were subjected to FACS analysis. […] Then cells were washed three times with FACS buffer. Bound Nanobodies were detected by subsequent incubations of a primary mouse anti Myc antibody (30 min at 4° C. (2 μg/ml)) and a second incubation with goat anti mouse-Phycoerythrin (PE) (Jackson Laboratories) for another 30 min at 4° C. Finally, after washing, the cells were resuspended in PBS+10% FBS+TO-PRO®-3 (5 nM) (Molecular Probes®, Invitrogen, Merelbeke, Belgium) and cell surface fluorescence expressed as mean PE fluorescence, was measured using flow cytometry.

[8] = target: T3, human RANK-L, full length, …; experiment: FACS, HEK293T with human RANK-L, 80 pM Nanobody
Protocol: as §2

[9] = target: T3, human RANK-L, full length, …; experiment: FACS, HEK293T with human RANK-L, 3.2 pM Nanobody
Protocol: as §2

[10] = target: T3, human RANK-L, full length, …; experiment: FACS, HEK293T with human RANK-L, 400 pM Nanobody
Protocol: as §2

[11] = target: T3, human RANK-L, full length, …; experiment: FACS, HEK293T with human RANK-L, 2000 pM Nanobody
Protocol: as §2

[12] = target: T4, TNFα (UniProt P01375 77-233); experiment: competition ELISA on RANK-L-coated plates, 1 nM Nanobody preincubated with the ligand
T4 construct: also called TNF-alpha
T4 sequence (P01375 77-233 limits assumed): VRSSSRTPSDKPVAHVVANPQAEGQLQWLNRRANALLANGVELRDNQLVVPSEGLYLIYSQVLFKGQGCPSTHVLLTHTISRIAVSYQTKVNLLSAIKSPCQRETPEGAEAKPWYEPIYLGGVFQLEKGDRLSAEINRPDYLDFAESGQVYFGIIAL

[13] = target: T5, CD40 ligand (UniProt P29965 113-261, limits assumed); experiment: as above
T5 sequence (looked up): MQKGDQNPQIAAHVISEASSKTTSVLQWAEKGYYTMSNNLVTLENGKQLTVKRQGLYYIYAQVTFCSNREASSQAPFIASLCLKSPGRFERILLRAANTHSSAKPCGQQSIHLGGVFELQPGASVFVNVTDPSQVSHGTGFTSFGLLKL

[14] = target: T6, TRAIL (UniProt P50591 114-281, limits assumed); experiment: as above
T6 construct: also called tumor necrosis factor-related apoptosis inducing ligand
T6 sequence (P50591 114-281 limits assumed): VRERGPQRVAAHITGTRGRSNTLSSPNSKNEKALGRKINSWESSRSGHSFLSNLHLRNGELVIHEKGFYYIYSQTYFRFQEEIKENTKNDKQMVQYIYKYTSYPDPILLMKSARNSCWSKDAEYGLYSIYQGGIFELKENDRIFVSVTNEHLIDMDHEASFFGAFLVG

B1: RANKL92biv (VHH)
chain: EVQLVESGGGLVQAGGSLRLTCAASGRTFRSYAMGWFRQAPGKEREFVAAINYSGGSTNYADSVKGRFTISRDNAKNTLYLQMNSLEPEDTAVYYCAAGSGYASLSYYSTERAYTYWGQGTQVTVSSGGGGSGGGGSGGGGSGGGGSEVQLVESGGGLVQAGGSLRLTCAASGRTFRSYAMGWFRQAPGKEREFVAAINYSGGSTNYADSVKGRFTISRDNAKNTLYLQMNSLEPEDTAVYYCAAGSGYASLSYYSTERAYTYWGQGTQVTVSS
notes: Bivalent Nanobody; also called RANKL9-20GS-RANKL9
IC50 [1]: 0.07 nM
IC50 [2]: 0.032 nM

B2: RANKL93biv (VHH)
chain: EVQLVESGGGLVQAGGSLRLTCAASGRTFRSYAMGWFRQAPGKEREFVAAINYSGGSTNYADSVKGRFTISRDNAKNTLYLQMNSLEPEDTAVYYCAAGSGYASLSYYSTERAYTYWGQGTQVTVSSGGGGSGGGGSGGGGSGGGGSGGGGSGGGGSEVQLVESGGGLVQAGGSLRLTCAASGRTFRSYAMGWFRQAPGKEREFVAAINYSGGSTNYADSVKGRFTISRDNAKNTLYLQMNSLEPEDTAVYYCAAGSGYASLSYYSTERAYTYWGQGTQVTVSS
notes: Bivalent Nanobody; also called RANKL9-30GS-RANKL9
IC50 [1]: 0.066 nM
IC50 [2]: 0.048 nM

B3: RANKL94biv (VHH)
chain: EVQLVESGGGLVQAGGSLRLTCAASGRTFRSYAMGWFRQAPGKEREFVAAINYSGGSTNYADSVKGRFTISRDNAKNTLYLQMNSLEPEDTAVYYCAAGSGYASLSYYSTERAYTYWGQGTQVTVSSGGGGSGGGGSGGGGSEVQLVESGGGLVQAGGSLRLTCAASGRTFRSYAMGWFRQAPGKEREFVAAINYSGGSTNYADSVKGRFTISRDNAKNTLYLQMNSLEPEDTAVYYCAAGSGYASLSYYSTERAYTYWGQGTQVTVSS
notes: Bivalent Nanobody; also called RANKL9-15GS-RANKL9
IC50 [1]: 0.072 nM
IC50 [2]: 0.03 nM

B4: RANKL18hum6Bi_30 (VHH)
chain: EVQLVESGGGLVQPGGSLRLSCAASGRTFSRSAMGWFRQAPGKGREFVGFITGSGGTTYYADSVKGRFTISRDNAQNPVYLQMNSLRPEDTAVYYCAVYRRTYISSTYSESSEYDYWGQGTLVTVSSGGGGSGGGGSGGGGSGGGGSGGGGSGGGGSEVQLVESGGGLVQPGGSLRLSCAASGRTFSRSAMGWFRQAPGKGREFVGFITGSGGTTYYADSVKGRFTISRDNAQNPVYLQMNSLRPEDTAVYYCAVYRRTYISSTYSESSEYDYWGQGTLVTVSS
notes: Bivalent humanized Nanobody; also called RANKL18Hum6-30GS-RANKL18Hum6
IC50 [1]: 0.05 nM
IC50 [2]: 0.038 nM

B5: RANKL9 (VHH)
VHH: EVQLVESGGGLVQAGGSLRLTCAASGRTFRSYAMGWFRQAPGKEREFVAAINYSGGSTNYADSVKGRFTISRDNAKNTLYLQMNSLEPEDTAVYYCAAGSGYASLSYYSTERAYTYWGQGTQVTVSS
notes: not shown: c-myc and His6 tags
binding result [3]: no binding (tested: 500 nM to 160 pM)
EC50 [4]: 0.542 nM
IC50 [5]: 0.137 nM
IC50 [6]: 0.341 nM
IC50 [1]: 0.238 nM
IC50 [2]: 0.13 nM
PE mean fluorescence [7]: 1350
PE mean fluorescence [8]: 2280
PE mean fluorescence [9]: 381
PE mean fluorescence [10]: 3360
PE mean fluorescence [11]: 4860
binding result [12]: no binding (tested: approximately 100 nM)
binding result [13]: no binding (tested: approximately 100 nM)
binding result [14]: no binding (tested: approximately 100 nM)

B6: RANKL6 (VHH)
VHH: EVQLVESGGGLMQTGGSLRLSCAASGVTYSYYTASWFRQAPGKEREFVAAISPSGNTYYADSVKGRFTISRDNGKHTMYLQMNSLNPEDTAVYFCAIRATDSIYYASSYRHWGQGTQVTVSS
notes: as for B5
binding result [3]: no binding (tested: 500 nM to 160 pM)
EC50 [4]: 0.385 nM
IC50 [5]: 0.288 nM
IC50 [6]: 0.777 nM
PE mean fluorescence [7]: 434
PE mean fluorescence [8]: 1700
PE mean fluorescence [9]: 347
PE mean fluorescence [10]: 4580
PE mean fluorescence [11]: 12800
binding result [12]: no binding (tested: approximately 100 nM)
binding result [13]: no binding (tested: approximately 100 nM)
binding result [14]: no binding (tested: approximately 100 nM)

B7: RANKL91biv (VHH)
chain: EVQLVESGGGLVQAGGSLRLTCAASGRTFRSYAMGWFRQAPGKEREFVAAINYSGGSTNYADSVKGRFTISRDNAKNTLYLQMNSLEPEDTAVYYCAAGSGYASLSYYSTERAYTYWGQGTQVTVSSGGGGSGGGSEVQLVESGGGLVQAGGSLRLTCAASGRTFRSYAMGWFRQAPGKEREFVAAINYSGGSTNYADSVKGRFTISRDNAKNTLYLQMNSLEPEDTAVYYCAAGSGYASLSYYSTERAYTYWGQGTQVTVSS
notes: Bivalent Nanobody; also called RANKL9-9GS-RANKL9
IC50 [1]: 0.153 nM
IC50 [2]: 0.09 nM

B8: RANKL18hum6Bi_25 (VHH)
chain: EVQLVESGGGLVQPGGSLRLSCAASGRTFSRSAMGWFRQAPGKGREFVGFITGSGGTTYYADSVKGRFTISRDNAQNPVYLQMNSLRPEDTAVYYCAVYRRTYISSTYSESSEYDYWGQGTLVTVSSGGGGSGGGGSGGGGSGGGGSGGGGSEVQLVESGGGLVQPGGSLRLSCAASGRTFSRSAMGWFRQAPGKGREFVGFITGSGGTTYYADSVKGRFTISRDNAQNPVYLQMNSLRPEDTAVYYCAVYRRTYISSTYSESSEYDYWGQGTLVTVSS
notes: Bivalent humanized Nanobody; also called RANKL18Hum6-25GS-RANKL18Hum6
IC50 [1]: 0.1 nM
IC50 [2]: 0.038 nM

B9: RANKL183biv (VHH)
chain: EVQLVESGGGLVQAGGSLRLSCAASGRTFSRSAMGWFRQAPGKEREFVGFITGSGGTTYYGESVKGRFTISRDNAQNPVYLQMNSLKPEDTAVYYCGVYRRTYISSTYSESSEYDYWGQGTQVTVSSGGGGSGGGGSGGGGSGGGGSGGGGSGGGGSEVQLVESGGGLVQAGGSLRLSCAASGRTFSRSAMGWFRQAPGKEREFVGFITGSGGTTYYGESVKGRFTISRDNAQNPVYLQMNSLKPEDTAVYYCGVYRRTYISSTYSESSEYDYWGQGTQVTVSS
notes: Bivalent Nanobody; also called RANKL18-30GS-RANKL18
IC50 [1]: 0.049 nM
IC50 [2]: 0.052 nM
